Reference: the DeepSol protein solubility set

Experiment: soluble on expression in E. coli; label from the status in PepcDB or PDB records

Q: With “MVKRANTFAMRPLTADDEQVLRDLLDASAALWNEINYQRLMRYNDKDGFEDEDVWDADTGALEGKYKAVLGASTAQTVRRANTEAWRSFFRLKKQFHDESNTSVTEHPEPPGFRGNKDDGRVLKGVVRKDAYSVEWGDRSRLEMVVGEQLRDRHNSPKSRLRLEIVGDPNWSDYEDQGRLELWYDETDCTFRASQPVTVSDDARATPLANEKAALDIGANNLVACTTTTGQQYLYEGRELFQRFRETTREIARLQSKLPEGRYSSKRIRRLYRKRTRRRDHAQETLCRDLLEQLYGEGVDTVYIGGLTDVLETHWSAETNAKTHNFWAFKQFTERLAWTADEYGISVEVRSEAWTSQECPQCGSTDRTTRQQDTLTCPCGFEGHADVTASETFLERHTEKAVRPMARPVRFEWDDHEWSESPRSPARESPKEQRTDPSTVPRDGNVVSGDSLEHHHHHH” as the sequence, how does the “soluble on expression in E. coli” value read?
A: not soluble

Q: Which “soluble on expression in E. coli” value does the source give for “MSLWRLKFFLDFEKEEKWLEEMAWKGYQLESTTFGYTFRYTEPEDATIRIDHRVFSRKSEFINYCTLFEDSGWEHIAGNRWSGTYYFKKVNEESEDDIFSDPMSRAGKYKRLSKTEGHHHHHH” here?
A: not soluble

Q: For “NAIMDLQTRNTRGLSTLVVRDIGELMMAGDMAVIERYVADVRGKGAVLDLRIYDAAGRPAGKKQDAPDGEVQAALTSGATAEKRHKVDGRHVLSFIVPLANEVRCQSCHEQGARFNGAMLLTTSLEEGYAGARN”, which “soluble on expression in E. coli” value is on record?
A: soluble

Q: Which “soluble on expression in E. coli” value does the source give for “MPQESSDAKRIEPPRKVDFMLKPRFTNTVPDVPFDAKFMTCPFVPLGRFVEFQPAAIYRDYKHAVICDDDMGLNVDLIDLKKYDEDPIETEIDEKDNILLEDDGAAKLIAKRSQQHSKLVPWMRKTEYISTEFNRFGVTADRQETKLGYNLKKNQQVEDMYRDKQSQIDAINKTFEDVRKPVKEHYSKKGVKAVEESFVFPDFDHWKHLFAHVQFDGDTITTEFEEEDERQQARESSVIKAMEFEDQKFAAVFVPTIGCLTSFMDDLELERPFDEDMKYEFLLSREYTFKMEHLPPRDRDVFIMYHRNNVFQYNEVDCNVKMTRKPKMALSRKSKLTLTYRNPSELEQKDMNKREAELYEQPKTRKQEILEKIQEKKEEGGDSSDQSSDSDDDKPQKSRSDSSSDVSSDDDSPRKKEPTVDSDSD” here?
A: not soluble

Q: For “MGHHHHHHSHMTITSGSSLPDGCEGRGLSVHTDMASVTKAMAAPESGLEVRDRMWLKITIPNAFLGSDVVDWLYHHVEGFPERREARKYASGLLKAGLIRHTVNKITFSEQCYYVFGDLSGGC”, which “soluble on expression in E. coli” value is on record?
A: soluble

Q: For “MAHHHHHHMQTYHRHMTSSSNPVVIFVFDHQGSAVTDFWAPLLQSVSKGLDAFGIEVAHAPTSSEIGQQLLAAMNAGSGPIILFFQGVGDTPAEGGKGLKMPIAYDGNIDMAHIMSWGLSCISSSVTHRVHNDVDLARFFAQYPQYPALPHVLYFPSTSYTPGGYLALSQHFALDAVFGVVPNAFTAPNATHIAQRYNITSKDELPVLLVLHRSTADAGGGAGESDRVVRMPAAATSLSYREALAFLSTQITDTVAALVAKAESTQNQHFLEVAESRRVYMMGQLIERQHDIVEEERLQMAREPILVKDQAVWAKECVQLPKKHRCVAAFVDSAQDSAAKDNAVKVLSLVSVKLLEIMGREAQKVSLVVVDRQGSDAVREYFDVGHNGFPDVLFLSLDRPAKYYNFVGTFSAEGVTQFVASHDAQLTQKDVRGGHTFIPRMVPKLEEAVAVPRSGDEDKDDL”, which “soluble on expression in E. coli” value is on record?
A: soluble

Q: Which “soluble on expression in E. coli” value does the source give for “MNTVIDFSAGVPPAVEVKAAGHIGVMRYISPPRLSWMTAKPATRPQIDRCRSAGVDVGFVWQYGGADNPDTMRGRTGGHADATSAQAKLIELGCPHHPVFFAVDFDISLDQWNATAVHYFKAACEVLGRDRVGIYGHSRVISWAVEDQVIADLGGGKHLAWQTPAWSMGERATEAVLYQGAANVKGPAGINIDVNEVLHHEWGQHPVGETRLEKSQEMELAMKPNPNHRGDPLFLPDVLKAFGVKVQEWDGWRDRGHGDFTVIQGVFAHHTGTDKDIPGYIADHPELGLCSQIHLNRDGTAVIVGAGIAYHAGRGSYPGWPTDNANQVAIGIEAASSGTSPWPPAQLDAYYRTCAAILWYLGKPATPQTLLGHKEYSGAAQGKWDPGGIDMNDFRRNVQHYIDNPPFLAADAAHITKEEDPMIQSLINPAKKFAQSTLISIVDATCWQILVLAKAIAKKQGLDPDQILADAITADREGK” here?
A: not soluble
